For this assay, the target named is T1, purified YU2 gp120 protein (HIV-1 external envelope glycoprotein) (HIV-1 (strain YU2), UniProt P35961 32-498).
T1 construct: also called HIV-1 envelope glycoprotein gp120; source: purified
Nature of the assay: pull-down. Particulars: both partners purified.

Positions count from the first letter of the chain named. Names may count otherwise.

B1: recombinant wild type (WT) XCL1/lymphotactin (ligand, human, UniProt P47992 22-114, looked up)
chain: VGSEVSDKRTCVSLTTQRLPVSRIKTYTITEGSLRAVIFITKRGLKVCADPQATWVRDVVRSMDRKSNTRNNMIQTKPTGTQQSTNTAVTLTG
notes: also called XCL1 WT
As for B1, the binding result is “binds”.

B2: XCL1 W55D, variant that preferentially adopts the all-β, alternatively-folded dimeric structure (ligand, human, UniProt P47992 22-114, looked up)
chain: B1 chain with W55D
B2: the binding result is recorded as “binds”.
